Here are results for two substances from publication doi:10.1101/2020.04.29.065136.

Experiment [1] deals with SNAP25 (mouse (endogenous in mouse brain synaptosomes)) (UniProt P60879). The experiment is described as follows: affinity purification with mass spectrometry.
Experiment [2] shares this target. The experiment is described as follows: co-IP.

Sequence of UniProt P60879 (P60879 whole entry): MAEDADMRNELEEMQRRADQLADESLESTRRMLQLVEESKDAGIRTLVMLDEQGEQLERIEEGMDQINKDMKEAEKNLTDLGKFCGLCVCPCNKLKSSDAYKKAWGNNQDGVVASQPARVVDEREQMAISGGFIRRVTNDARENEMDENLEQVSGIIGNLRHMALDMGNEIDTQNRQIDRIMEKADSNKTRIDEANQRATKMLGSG

In the case of “Gβ1 (from UniProt P62874 1-340) (natural protein)”, the fold increase of the interaction upon epi stimulation against the basal state in experiment [1] worked out at 10 fold.

The substance “Gβγ (from UniProt P62874 1-340; P63216 1-75) (complex)” came in with an amount pulled down with SNAP25 per half brain in experiment [2] of 1 µg.
